The results in this text go back to patent US20090175889A1.

Holding throughout (assay): cell-based or functional assay
The target of test [1] is human CXCR4 (on U87 human astroglioma cells stably transduced with human CXCR4) (human) (UniProt P61073).
The target in test [2] is HIV-1 89.6 Env glycan mutant NV3 (N301Q) (HIV-1 isolate 89.6) (UniProt Q73372).
The target of test [3] is HIV-1 89.6 Env glycan mutant N7 (N197Q) (HIV-1 isolate 89.6) (UniProt Q73372).
Test [4] addresses HIV-1 89.6 Env triple glycan mutant N67V3 (N6, N7 and NV3: N187Q, N197Q, N301Q) (HIV-1 isolate 89.6) (UniProt Q73372).

Chain of UniProt P61073 (P61073 whole entry): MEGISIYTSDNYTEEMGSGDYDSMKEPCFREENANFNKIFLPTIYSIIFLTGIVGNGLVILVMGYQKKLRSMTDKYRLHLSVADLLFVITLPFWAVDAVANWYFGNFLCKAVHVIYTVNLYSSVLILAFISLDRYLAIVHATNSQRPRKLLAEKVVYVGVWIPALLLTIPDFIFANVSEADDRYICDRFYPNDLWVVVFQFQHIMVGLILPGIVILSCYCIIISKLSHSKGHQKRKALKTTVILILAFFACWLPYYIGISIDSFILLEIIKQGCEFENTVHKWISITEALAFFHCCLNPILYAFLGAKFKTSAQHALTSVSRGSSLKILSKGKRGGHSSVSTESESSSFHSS

The substance “HIV-1 89.6 Env glycan mutant N7 (N197Q) (from UniProt Q73372 32-853)” yielded a relative infectivity of pseudotyped virus in U87-CXCR4 cells in the absence of CD4 (vs WT virus) in test [1] of 10 fold.
“HIV-1 89.6 Env glycan mutant NV3 (N301Q) (from UniProt Q73372 32-853)”: the increase in infectivity in CD4-negative cells as compared to WT Env in test [1] lay within 2 to 3 fold.
monoclonal antibody 2G12 returned a decrease in neutralization sensitivity (vs WT) in test [2] of 2 to 3 fold. The increase in neutralization sensitivity (vs WT) in test [3] turned out to be 3 fold.
With monoclonal antibody 4E10, the increase in neutralization sensitivity (vs WT) in test [3] and in test [4] was 3 fold throughout.
In the case of monoclonal antibody 17b, the sensitivity to 17b without sCD4, compared to the WT or the N6 and NV3 mutants in the presence of sCD4 in test [3] and in test [4] was 30 fold in each case.
With monoclonal antibody IgG1b12, the enhancement in neutralization sensitivity compared to wild-type 89.6 in test [3] was found to be 60 fold.
On the same count and under the same terms, then “recombinant sCD4-Ig (from UniProt P01730 26-204) (Fc fusion)”, with 50 fold.
